Literature values in PMC7395068, “The evolution of strategies to minimise the risk of human drug-induced liver injury (DILI) in drug discovery and development” (Archives of Toxicology, 2020).

B1: pegademase bovine (protein, UniProt P56658 2-363, looked up)
Adenosine deaminase: AQTPAFNKPKVELHVHLDGAIKPETILYYGRKRGIALPADTPEELQNIIGMDKPLSLPEFLAKFDYYMPAIAGCREAVKRIAYEFVEMKAKDGVVYVEVRYSPHLLANSKVEPIPWNQAEGDLTPDEVVSLVNQGLQEGERDFGVKVRSILCCMRHQPSWSSEVVELCKKYREQTVVAIDLAGDETIEGSSLFPGHVKAYAEAVKSGVHRTVHAGEVGSANVVKEAVDTLKTERLGHGYHTLEDATLYNRLRQENMHFEVCPWSSYLTGAWKPDTEHPVVRFKNDQVNYSLNTDDPLIFKSTLDTDYQMTKNEMGFTEEEFKRLNINAAKSSFLPEDEKKELLDLLYKAYGMPSPASAEQCL
modifications: PEG conjugate
B2: laronidase (protein, UniProt P35475 28-653, looked up)
Alpha-L-iduronidase: APHLVHVDAARALWPLRRFWRSTGFCPPLPHSQADQYVLSWDQQLNLAYVGAVPHRGIKQVRTHWLLELVTTRGSTGRGLSYNFTHLDGYLDLLRENQLLPGFELMGSASGHFTDFEDKQQVFEWKDLVSSLARRYIGRYGLAHVSKWNFETWNEPDHHDFDNVSMTMQGFLNYYDACSEGLRAASPALRLGGPGDSFHTPPRSPLSWGLLRHCHDGTNFFTGEAGVRLDYISLHRKGARSSISILEQEKVVAQQIRQLFPKFADTPIYNDEADPLVGWSLPQPWRADVTYAAMVVKVIAQHQNLLLANTTSAFPYALLSNDNAFLSYHPHPFAQRTLTARFQVNNTRPPHVQLLRKPVLTAMGLLALLDEEQLWAEVSQAGTVLDSNHTVGVLASAHRPQGPADAWRAAVLIYASDDTRAHPNRSVAVTLRLRGVPPGPGLVYVTRYLDNGLCSPDGEWRRLGRPVFPTAEQFRRMRAAEDPVAAAPRPLPAGGRLTLRPALRLPSLLLVHVCARPEKPPGQVTRLRALPLTQGQLVLVWSDEHVGSKCLWTYEIQFSQDGKAYTPVSRKPSTFNLFVFSPDTGAVSGSYRVRALDYWARPGPFSDPVPYLEVPVPRGPPSPGNP
B3: pegvisomant (protein, UniProt P01241 27-217, looked up, variant H18D H21N Q22N F25S K41I Y42H L45W Q46W G120K R167N D171S E174S I179T)
Somatotropin: FPTIPLSRLFDNAMLRADRLNNLASDTYQEFEEAYIPKEQIHSFWWNPQTSLCFSESIPTPSNREETQQKSNLELLRISLLLIQSWLEPVQFLRSVFANSLVYGASDSNVYDLLKDLEEKIQTLMGRLEDGSPRTGQIFKQTYSKFDTNSHNDDALLKNYGLLYCFNKDMSKVSTFLRTVQCRSVEGSCGF
modifications: PEGylated
B4: rasburicase (protein, UniProt Q00511 2-302, looked up)
Uricase: SAVKAARYGKDNVRVYKVHKDEKTGVQTVYEMTVCVLLEGEIETSYTKADNSVIVATDSIKNTIYITAKQNPVTPPELFGSILGTHFIEKYNHIHAAHVNIVCHRWTRMDIDGKPHPHSFIRDSEEKRNVQVDVVEGKGIDIKSSLSGLTVLKSTNSQFWGFLRDEYTTLKETWDRILSTDVDATWQWKNFSGLQEVRSHVPKFDATWATAREVTLKTFAEDNSASVQATMYKMAEQILARQQLIETVEYSLPNKHYFEIDLSWHKGLQNTGKNAEVFAPQSDPNGLIKCTVGRSSLKSKL
B5: tenecteplase (protein, UniProt P00750 36-562, looked up, variant T103N N117Q K296A H297A R298A R299A)
Tissue-type plasminogen …: SYQVICRDEKTQMIYQQHQSWLRPVLRSNRVEYCWCNSGRAQCHSVPVKSCSEPRCFNGGTCQQALYFSDFVCQCPEGFAGKCCEIDTRATCYEDQGISYRGNWSTAESGAECTNWQSSALAQKPYSGRRPDAIRLGLGNHNYCRNPDRDSKPWCYVFKAGKYSSEFCSTPACSEGNSDCYFGNGSAYRGTHSLTESGASCLPWNSMILIGKVYTAQNPSAQALGLGKHNYCRNPDGDAKPWCHVLKNRRLTWEYCDVPSCSTCGLRQYSQPQFRIKGGLFADIASHPWQAAIFAAAAASPGERFLCGGILISSCWILSAAHCFQERFPPHHLTVILGRTYRVVPGEEEQKFEVEKYIVHKEFDDDTYDNDIALLQLKSDSSRCAQESSVVRTVCLPPADLQLPDWTECELSGYGKHEALSPFYSERLKEAHVRLYPSSRCTSQHLLNRTVTDNMLCAGDTRSGGPQANLHDACQGDSGGPLVCLNDGRMTLVGIISWGLGCGQKDVPGVYTKVTNYLDWIRDNMRP
B6: idursulfase (protein, UniProt P22304 34-455; P22304 456-550, looked up)
Iduronate 2-sulfatase 42 kDa …: TDALNVLLIIVDDLRPSLGCYGDKLVRSPNIDQLASHSLLFQNAFAQQAVCAPSRVSFLTGRRPDTTRLYDFNSYWRVHAGNFSTIPQYFKENGYVTMSVGKVFHPGISSNHTDDSPYSWSFPPYHPSSEKYENTKTCRGPDGELHANLLCPVDVLDVPEGTLPDKQSTEQAIQLLEKMKTSASPFFLAVGYHKPHIPFRYPKEFQKLYPLENITLAPDPEVPDGLPPVAYNPWMDIRQREDVQALNISVPYGPIPVDFQRKIRQSYFASVSYLDTQVGRLLSALDDLQLANSTIIAFTSDHGWALGEHGEWAKYSNFDVATHVPLIFYVPGRTASLPEAGEKLFPYLDPFDSASQLMEPGRQSMDLVELVSLFPTLAGLAGLQVPPRCPVPSFHVELCREGKNLLKHFRFRDLEEDPYLPG
Iduronate 2-sulfatase 14 kDa …: NPRELIAYSQYPRPSDIPQWNSDKPSLKDIKIMGYSIRTIDYRYTVWVGFNPDEFLANFSDIHAGELYFVDSDPLQDHNMYNDSQGGDLFQLLMP
B7: interferon gamma-1b (protein, UniProt P01579 24-161, looked up)
Interferon gamma: QDPYVKEAENLKKYFNAGHSDVADNGTLFLGILKNWKEESDRKIMQSQIVSFYFKLFKNFKDDQSIQKSVETIKEDMNVKFFNSNKKKRDDFEKLTNYSVTDLNVQRKAIHELIQVMAELSPAAKTGKRKRSQMLFRG
B8: pegaspargase (protein, UniProt P00805 23-348, looked up)
L-asparaginase 2: LPNITILATGGTIAGGGDSATKSNYTVGKVGVENLVNAVPQLKDIANVKGEQVVNIGSQDMNDNVWLTLAKKINTDCDKTDGFVITHGTDTMEETAYFLDLTVKCDKPVVMVGAMRPSTSMSADGPFNLYNAVVTAADKASANRGVLVVMNDTVLDGRDVTKTNTTDVATFKSVNYGPLGYIHNGKIDYQRTPARKHTSDTPFDVSKLNELPKVGIVYNYANASDLPAKALVDAGYDGIVSAGVGNGNLYKSVFDTLATAAKTGTAVVRSSRVPTGATTQDAEVDDAKYGFVASGTLNPQKARVLLQLALTQTKDPQQIQQIFNQY
modifications: PEG conjugate
B9: pegfilgrastim (protein, UniProt P09919 31-207, looked up)
Granulocyte …: TPLGPASSLPQSFLLKCLEQVRKIQGDGAALQEKLVSECATYKLCHPEELVLLGHSLGIPWAPLSSCPSQALQLAGCLSQLHSGLFLYQGLLQALEGISPELGPTLDTLQLDVADFATTIWQQMEELGMAPALQPTQGAMPAFASAFQRRAGGVLVASHLQSFLEVSYRVLRHLAQP
modifications: N-terminal Met; PEG
B10: imiglucerase (protein, UniProt P04062 40-536, looked up, variant R495H)
Lysosomal acid …: ARPCIPKSFGYSSVVCVCNATYCDSFDPPTFPALGTFSRYESTRSGRRMELSMGPIQANHTGTGLLLTLQPEQKFQKVKGFGGAMTDAAALNILALSPPAQNLLLKSYFSEEGIGYNIIRVPMASCDFSIRTYTYADTPDDFQLHNFSLPEEDTKLKIPLIHRALQLAQRPVSLLASPWTSPTWLKTNGAVNGKGSLKGQPGDIYHQTWARYFVKFLDAYAEHKLQFWAVTAENEPSAGLLSGYPFQCLGFTPEHQRDFIARDLGPTLANSTHHNVRLLMLDDQRLLLPHWAKVVLTDPEAAKYVHGIAVHWYLDFLAPAKATLGETHRLFPNTMLFASEACVGSKFWEQSVRLGSWDRGMQYSHSIITNLLYHVVGWTDWNLALNPEGGPNWVRNFVDSPIIVDITKDTFYKQPMFYHLGHFSKFIPEGSQRVGLVASQKNDLDAVALMHPDGSAVVVVLNRSSKDVPLTIKDPAVGFLETISPGYSIHTYLWHRQ

Conditions: in vivo

Q: What does the source list for B1?
A: DILI +VE (5-8), DILI -VE (-4): -VE; DILI severity category: vNo-DILI-Concern

Q: With B2 as the molecule, how does the “DILI +VE (5-8), DILI -VE (-4)” value read?
A: -VE

Q: And the DILI severity category?
A: Ambiguous DILI-concern

Q: With B3 as the molecule, how does the “DILI +VE (5-8), DILI -VE (-4)” value read?
A: -VE

Q: And the DILI severity category?
A: Ambiguous DILI-concern

Q: With B4 as the molecule, how does the “DILI +VE (5-8), DILI -VE (-4)” value read?
A: -VE

Q: What about the DILI severity category of the same molecule?
A: vNo-DILI-Concern

Q: Which results are given for B5?
A: DILI +VE (5-8), DILI -VE (-4): -VE; DILI severity category: vNo-DILI-Concern

Q: Which “DILI +VE (5-8), DILI -VE (-4)” value does the source give for B6 here?
A: -VE

Q: What about the DILI severity category of the same molecule?
A: vNo-DILI-Concern

Q: What does the source list for B7?
A: DILI +VE (5-8), DILI -VE (-4): -VE; DILI severity category: Ambiguous DILI-concern

Q: Which “DILI +VE (5-8), DILI -VE (-4)” value does the source give for B8 here?
A: +VE

Q: And the DILI severity category?
A: vLess-DILI-Concern

Q: What does the source list for B9?
A: DILI +VE (5-8), DILI -VE (-4): -VE; DILI severity category: vNo-DILI-Concern

Q: With B10 as the molecule, how does the “DILI +VE (5-8), DILI -VE (-4)” value read?
A: -VE

Q: And the DILI severity category?
A: vNo-DILI-Concern
